Measurements published in PMC12363408.
Several values for one entry are separate records, joined by “and”; a condition that tells them apart may be missing. Equal entries are not always repeated.

Tests used:
[1] = target: amyloid precursor protein C99 (UniProt P05067); assay: SDS-PAGE with Western blot (SDS-stable oligomers); whole-cell expression samples of E. coli (0.8 OD600, autoinduction or IPTG), heated 4 min at 90°C in SDS dye, 4-20% gel, detected with antibody 6E10
[2] = target: amyloid precursor protein C99 (UniProt P05067); assay: SDS-PAGE with Western blot (SDS-stable oligomers); SEC fractions of Ni-purified C99 in E. coli lipid pentyl-inulin nanodiscs (detergent-free), heated in SDS dye, 4-20% gel, detected with antibody 6E10

“amyloid precursor protein C99 (from UniProt P05067 672-770) (domain or fragment)” was tested, and the stoichiometry N [1] was 2 and 3 and the stoichiometry N [2] was 3.
